# Results taken from US20090286243A1 (CEDARS SINAI MEDICAL CENTER, published 2009).
# Residue numbers refer to the chain shown, from its start. Numbers in names are those of the source.
# T1: wild type human Kv3.3 (KCNC3) voltage-gated potassium channel subunit (human, UniProt Q14003 1-757)
# T1 sequence: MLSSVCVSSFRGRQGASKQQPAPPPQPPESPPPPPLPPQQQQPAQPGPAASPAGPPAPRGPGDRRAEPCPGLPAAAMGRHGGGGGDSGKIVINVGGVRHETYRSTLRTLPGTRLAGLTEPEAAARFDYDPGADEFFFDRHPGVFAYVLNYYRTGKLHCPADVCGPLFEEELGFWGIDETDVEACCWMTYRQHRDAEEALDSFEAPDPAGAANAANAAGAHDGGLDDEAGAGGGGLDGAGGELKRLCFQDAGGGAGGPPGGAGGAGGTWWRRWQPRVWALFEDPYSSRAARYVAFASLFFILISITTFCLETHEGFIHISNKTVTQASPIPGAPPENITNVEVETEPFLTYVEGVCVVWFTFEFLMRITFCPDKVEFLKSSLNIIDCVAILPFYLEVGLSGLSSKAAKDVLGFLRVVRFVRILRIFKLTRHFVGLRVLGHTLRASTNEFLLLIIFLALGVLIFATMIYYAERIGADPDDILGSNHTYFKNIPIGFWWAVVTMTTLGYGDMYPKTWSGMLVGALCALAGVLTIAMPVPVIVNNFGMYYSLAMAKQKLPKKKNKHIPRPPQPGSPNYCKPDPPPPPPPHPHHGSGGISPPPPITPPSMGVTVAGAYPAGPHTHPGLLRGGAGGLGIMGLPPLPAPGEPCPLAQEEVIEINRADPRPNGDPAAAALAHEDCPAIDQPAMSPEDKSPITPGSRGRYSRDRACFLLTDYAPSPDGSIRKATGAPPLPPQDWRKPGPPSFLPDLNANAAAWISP
# B1: Kv3.3 R423H mutant subunit (other)
# chain: T1 sequence with R423H
# B2: Kv3.3 R366H mutant subunit (other)
# chain: T1 sequence with R366H
# Target: T1, wild type human Kv3.3 (KCNC3) …
# Experiment: cell-based or functional assay
Binder,"current amplitudes measured at +60 mV, 1:1 expression ratio of wild type and R423H, Xenopus oocytes","current amplitudes, 1:1 expression ratio of wild type and R366H, Xenopus oocytes"
B1,~20 % of wild type expressed alone,
B2,,~50 % of wild type expressed alone
